Usually Kd stands for the free concentration of one partner at which half of the binding sites on the other are occupied at equilibrium, for simple one-to-one binding. Low values mean tighter binding, high ones weaker binding.

Consider two molecules from PMC2699497.

Data set [1] has as its target T1, human uracil DNA glycosylase (UNG) (human, UniProt P13051 94-313). As to the kind of experiment: NMR HSQC titration, relaxation dispersion.
For data set [2], the target named is T1, human uracil DNA glycosylase (UNG). The data set is described as follows: fluorescence anisotropy. Background: In fluorescence polarisation assays a small probe gives low polarisation when free and higher when bound to something large.

T1 sequence (P13051 94-313): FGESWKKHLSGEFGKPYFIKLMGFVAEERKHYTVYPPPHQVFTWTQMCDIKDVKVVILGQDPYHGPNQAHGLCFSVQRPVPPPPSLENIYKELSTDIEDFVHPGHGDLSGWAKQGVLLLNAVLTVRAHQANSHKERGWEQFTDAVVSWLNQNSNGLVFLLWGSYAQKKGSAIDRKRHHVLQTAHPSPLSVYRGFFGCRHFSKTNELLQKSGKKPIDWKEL

B1: unlabeled 10-mer nontarget duplex (NMR) (dsDNA)
DNA 1: CTGGATCCAG
DNA 2: CTGGATCCAG
In the case of B1, the binding result in data set [1] was “binds”.

B2: 5'-FAM 10-mer nontarget duplex (dsDNA)
DNA 1: TCGATCGATG
DNA 2: CATCGATCGA
In data set [2], B2 came in with a Kd of 29 ± 0.4 µM.
